# Columns and labels:
# [1] = target: T1, CSF-1R-ECD-human Fc (in house) (human, UniProt P07333 20-512); assay: ELISA, coated CSF1R-ECD-hFc 1 ug/ml, anti-kappa HRP, one site specific binding fit (GraphPad Prism)
# T1 construct: In-house fusion; also called CSF-1R-ECD-hFc; CSF1R-ECD-hFc; not shown: human Fc
# Protocol: (§1) To know the binding affinity differences among individual antibodies, ELISA method was used. ELISA plate was coated with 1 μg/ml of CSF1R-ECD-hFc, then add assay antibodies diluted from 50 nM to 1×10⁻⁵ nM (5-10× fold dilution). Assay was measured by adding anti-kappa HRP secondary antibody (1:5000 dilution). Binding curve and KD were determined with GraphPad Prism software using one site-specific binding for nonlinear fit methods. […] This loss of avidity was recovered by back mutations, as evidenced by humanized antibodies B1-Hu, B2-Hu, B1-B1, and B2-B1 clones. (See FIG. 11 and FIG. 12).
# [2] = target: T1, CSF-1R-ECD-human Fc (in house); assay: ELISA, coated CSF1R-ECD-hFc 1 ug/ml, anti-kappa HRP, OD450
# Protocol: as §1
# [3] = target: T1, CSF-1R-ECD-human Fc (in house); assay: ELISA, CSF1R-ECD-hFc coated at 1 ug/ml, anti-kappa HRP, one site-specific binding fit
# Protocol: as §1
# [4] = target: T1, CSF-1R-ECD-human Fc (in house); assay: ELISA, CSF1R-ECD-hFc coated at 1 ug/ml, anti-kappa HRP
# Protocol: as §1
# T1 sequence (P07333 20-512): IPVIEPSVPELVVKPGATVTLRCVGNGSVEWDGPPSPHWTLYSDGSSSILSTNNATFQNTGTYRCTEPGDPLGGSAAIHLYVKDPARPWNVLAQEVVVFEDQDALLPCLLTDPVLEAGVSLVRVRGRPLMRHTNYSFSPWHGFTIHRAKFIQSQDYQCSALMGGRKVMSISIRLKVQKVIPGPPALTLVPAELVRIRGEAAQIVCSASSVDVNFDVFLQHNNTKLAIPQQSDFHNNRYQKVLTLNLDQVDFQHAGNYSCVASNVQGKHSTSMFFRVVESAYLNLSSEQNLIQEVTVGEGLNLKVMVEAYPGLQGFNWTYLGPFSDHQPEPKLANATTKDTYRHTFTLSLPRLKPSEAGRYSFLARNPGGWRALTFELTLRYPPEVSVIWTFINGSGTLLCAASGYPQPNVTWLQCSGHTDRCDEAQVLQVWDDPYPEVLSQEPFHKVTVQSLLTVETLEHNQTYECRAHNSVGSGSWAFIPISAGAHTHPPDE
Bmax [1],Kd [3] [nM],Binder,also measured
–,83,"humanized AB21 Hu-Hu (Hu AB21 VH with Hu AB21 VL), the initial humanized antibody (antibody, V domains shown, Human IgG from vector pTCAE8-AB21 in FreeStyle 293 cells, kappa light chain (anti-kappa HRP detection); also called heavy chain Hu combined light chain Hu) VH: EVQLVQSGAEVKKPGATVKISCKVSGYSFTGYNMNWVQQAPGKGLEWMGNIDPYYGGTTYNQKFKGRVTITADTSTDTAYMELSSLRSEDTAVYYCATRGDYSGSSYWYFDVWGQGTLVTVSS VL: DIQMTQSPSSLSASVGDRVTITCKASDHINNWLAWYQQKPGKAPKLLLYGATSLETGVPSRFSGSGSGTDYTLTISSLQPEDFATYYCQQYWSTPFTFGQGTKVEIK",fold lower affinity than the original mouse antibody (M-M) [4]: ~1000 fold
3.17,–,"humanized AB21 B2-Hu (Hu AB21 VHB2 with Hu AB21 VL) (antibody, V domains shown, Human IgG from vector pTCAE8-AB21 in FreeStyle 293 cells, kappa light chain) VH: EVQLVQSGAEVKKPGASVKISCKVSGYSFTGYNMNWVKQAPGKGLEWIGNIDPYYGGTTYNQKFKGKATLTVDKSTSTAYMELSSLRSEDTAVYYCARRGDYSGSSYWYFDVWGQGTLVTVSS VL: DIQMTQSPSSLSASVGDRVTITCKASDHINNWLAWYQQKPGKAPKLLLYGATSLETGVPSRFSGSGSGTDYTLTISSLQPEDFATYYCQQYWSTPFTFGQGTKVEIK",EC50 (read off the curve) [2]: ~0.08 nM
–,0.0558,"humanized AB21 B1-B1 (AB21 VHB1 with AB21 VLB1) (antibody, V domains shown, Human IgG from vector pTCAE8-AB21 in FreeStyle 293 cells, kappa light chain; also called heavy chain B1 combined with light chain B1) VH: EVQLVQSGAEVKKPGATVKISCKVSGYSFTGYNMNWVQQAPGKGLEWMGNIDPYYGGTTYNQKFKGKATLTVDKSTSTAYMELSSLRSEDTAVYYCARRGDYSGSSYWYFDVWGQGTLVTVSS VL: DIQMTQSPSSLSASLGDRVTITCKASDHINNWLAWYQQKPGKAPKLLLSGATSLETGVPSRFSGSGSGTDYTLTISSLQPEDFATYYCQQYWSTPFTFGQGTKVEIK",–

# Second part, the binder before the results:
Binder,Bmax [1],Kd [3] [nM],also measured
"B1-Hu(IgG4) (antibody, V domains shown, an IgG1 and an IgG4 form) VH: EVQLVQSGAEVKKPGATVKISCKVSGYSFTGYNMNWVQQAPGKGLEWMGNIDPYYGGTTYNQKFKGKATLTVDKSTSTAYMELSSLRSEDTAVYYCARRGDYSGSSYWYFDVWGQGTLVTVSS VL: DIQMTQSPSSLSASVGDRVTITCKASDHINNWLAWYQQKPGKAPKLLLYGATSLETGVPSRFSGSGSGTDYTLTISSLQPEDFATYYCQQYWSTPFTFGQGTKVEIK",3.19,–,–
"B1-Hu(IgG1) (antibody, V domains shown, an IgG1 and an IgG4 form) VH: EVQLVQSGAEVKKPGATVKISCKVSGYSFTGYNMNWVQQAPGKGLEWMGNIDPYYGGTTYNQKFKGKATLTVDKSTSTAYMELSSLRSEDTAVYYCARRGDYSGSSYWYFDVWGQGTLVTVSS VL: DIQMTQSPSSLSASVGDRVTITCKASDHINNWLAWYQQKPGKAPKLLLYGATSLETGVPSRFSGSGSGTDYTLTISSLQPEDFATYYCQQYWSTPFTFGQGTKVEIK",–,–,EC50 (read off the curve) [2]: ~0.04 nM
"humanized AB21 B1-Hu (AB21 VHB1 with Hu AB21 VL) (antibody, V domains shown, Human IgG from vector pTCAE8-AB21 in FreeStyle 293 cells, kappa light chain; also called heavy chain B1 combined with light chain Hu) VH: EVQLVQSGAEVKKPGATVKISCKVSGYSFTGYNMNWVQQAPGKGLEWMGNIDPYYGGTTYNQKFKGKATLTVDKSTSTAYMELSSLRSEDTAVYYCARRGDYSGSSYWYFDVWGQGTLVTVSS VL: DIQMTQSPSSLSASVGDRVTITCKASDHINNWLAWYQQKPGKAPKLLLYGATSLETGVPSRFSGSGSGTDYTLTISSLQPEDFATYYCQQYWSTPFTFGQGTKVEIK",–,0.0958,–
"M-M(IgG4) (antibody, V domains shown, an IgG1 and an IgG4 form) VH: EVQLQQSGPELEKPGASVKISCKASGYSFTGYNMNWVKQSNGKSLEWIGNIDPYYGGTTYNQKFKGKATLTVDKSSSTAYMQLKSLTSEDSAVYYCARRGDYSGSSYWYFDVWGAGTTVTVSS VL: DIQMTQSSSYLSVSLGGRVTITCKASDHINNWLAWYQQKPGNAPRLLISGATSLETGVPSRFSGSGSGKDYTLSITSLQTEDVVTYYCQQYWSTPFTFGSGTKLEIK",3.2,–,–
"AB21 M-M (mouse heavy chain variable region with mouse light chain variable region, recombinant) (antibody, V domains shown) VH: EVQLQQSGPELEKPGASVKISCKASGYSFTGYNMNWVKQSNGKSLEWIGNIDPYYGGTTYNQKFKGKATLTVDKSSSTAYMQLKSLTSEDSAVYYCARRGDYSGSSYWYFDVWGAGTTVTVSS VL: DIQMTQSSSYLSVSLGGRVTITCKASDHINNWLAWYQQKPGNAPRLLISGATSLETGVPSRFSGSGSGKDYTLSITSLQTEDVVTYYCQQYWSTPFTFGSGTKLEIK",–,0.0936,–

# — patent US20220064310A1 (DEVELOPMENT CENTER FOR BIOTECHNOLOGY, published 2022)
